# In article PMC7265302 (Nature Communications, 2020):
# B1: UBE2N (K94A), the UBE2N moiety of the conjugated UBE2N~Ub (enzyme)
# chain: MAGLPRRIIKETQRLLAEPVPGIKAEPDESNARYFHVVIAGPQDSPFEGGTFKLELFLPEEYPMAAPKVRFMTKIYHPNVDKLGRICLDILKDAWSPALQIRTVLLSIQALLSAPNPDDPLANDVAEQWKTNEAQAIETARAWTRLYAMNNI
# notes: UBE2N, human E2 enzyme
# Molecular target: MavC (residues 1–385, [change]) (Legionella pneumophila, UniProt Q5ZTL4 1-385)
# Experiment: crystal structure
# Conditions: both partners purified
binder,measurement,value
B1,binding result,binds
